According to article PMC9552611, “MtTRC-1, a Novel Transcription Factor, Regulates Cellulase Production via Directly Modulating the Genes Expression of the Mthac-1 and Mtcbh-1 in Myceliophthora thermophila”:

B1: Mthac-1-P7-FP-M4 (dsDNA)
DNA 1: GATGTGTTTTACAATCGTTCTATTTATTCATTGCTTGACTTGTGGG
DNA 2: CCCACAAGTCAAGCAATGAATAAATAGAACGATTGTAAAACACATC

Tests used:
[1] = molecular target: T1, GST-MtTRC-1-DBD (Myceliophthora thermophila ATCC 42464) (UniProt G2Q031); test: EMSA; settings: EMSA: 20 mM Tris-base pH 7.5, 20 mM KCl, 10 mM MgCl2, 2 mM DTT, 0.5 ug/uL BSA, 0.2 mg/mL fish sperm DNA, 5% glycerol, 25 C 30 min, 10 ng probe; gel 5% PAGE …
T1 sequence: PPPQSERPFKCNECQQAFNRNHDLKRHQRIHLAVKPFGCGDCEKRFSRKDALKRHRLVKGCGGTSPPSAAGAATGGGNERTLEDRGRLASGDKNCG

GST-MtTRC-1-DBD = molecular target: T2, GST-MtTRC-1-DBD (Myceliophthora thermophila ATCC 42464, UniProt G2Q031 355-450); test: EMSA; EMSA: 20 mM Tris-base pH 7.5, 20 mM KCl, 10 mM MgCl2, 2 mM DTT, 0.5 ug/uL BSA, 0.2 mg/mL fish sperm DNA, 5% glycerol, 25 C 30 min, 10 ng probe; gel 5% PAGE 0.5x TBE 4 C. Footprinting: 400 ng probe in 40 uL, 25 C 30 min; settings: protein: recombinant; tags: GST (N-terminal, pGEX-4T-1); label: Cy5
T2 sequence: T1 sequence

Molecule | binding [1] | binding result (GST-MtTRC-1-DBD)
TTTGCACCATGGAACCTGTGCCCAAAGAACCAAAGAACGCTATTCGCACATATTGCGAATCAGTTGCCAGTGATAGGGGGCGGGGACAGAACCCAAGCCGAGACATACTGTACAACCCAGCGGGTTGTCAATTGCACGCTACATGGTGTAATTTGTATTCCGGACGCACATCATTTCGCAGTTAAGGTTGTGCCCGCTTTTCTGCACTGCCGCTTTGGCGTCTCTTTTTTTTTTTTTTTACGAAGGCTTGCAAGGCGACGTCTTACGCGGTCGGACTTGAATCAGACA (double strand) [Mthac-1-P3] | binds | –
B1 | – | no binding
